Several values for one entry are separate records, joined by “and”; a condition that tells them apart may be missing. Equal values may be shown once.
How the values were obtained:
[1] = molecular target: GDF8 protein (R&D Systems Inc.) (UniProt O14793); experiment: cell-based or functional assay
[2] = molecular target: DJ6 peptide (GDF8 active region peptide 342-361) (human); experiment: ELISA, peptide coated 500 ng/well, antibody diluted 1:20
[3] = molecular target: DJ4 peptide (GDF8 active region peptide 312-331) (human); experiment: as above
[4] = molecular target: DJ7 peptide (GDF8 active region peptide 357-375) (human); experiment: as above
[5] = molecular target: DJ2 peptide (GDF8 active region peptide 282-301) (human); experiment: as above
[6] = molecular target: DJ3 peptide (GDF8 active region peptide 297-316) (human); experiment: as above
[7] = molecular target: DJ5 peptide (GDF8 active region peptide 327-346) (human); experiment: as above
[8] = molecular target: DJ1 peptide (GDF8 active region peptide 267-286) (human); experiment: as above
[9] = molecular target: TMV U1 coat protein / wild-type TMV U1 virus (tobacco mosaic virus, strain U1) (UniProt P69687); experiment: indirect ELISA, antigen coated at 5 ug/mL
[10] = molecular target: TMV U5 coat protein / TMV U5 virus (tobacco mild green mosaic virus (TMV U5)); experiment: indirect ELISA, antigen coated at 5 ug/mL
[11] = molecular target: TMV-FV7 (DJ5(12)-U1-GPAT coat protein fusion, from pLSB-FV7); experiment: indirect ELISA, antigen coated at 5 ug/mL
[12] = molecular target: Purified CHO-derived FLAG-tagged human GDF8 prohormone (precursor GDF8) (human) (UniProt O14793); experiment: direct ELISA, response per pmole
[13] = molecular target: Purified CHO-derived FLAG-tagged human GDF8 prohormone (precursor GDF8) (human) (UniProt O14793); experiment: indirect ELISA
[14] = molecular target: Purified CHO-derived FLAG-tagged human GDF8 prohormone (precursor GDF8) (human) (UniProt O14793); experiment: ELISA, prohormone coated 250 ng/well, antibody diluted 1:20
[15] = molecular target: Purified CHO-derived FLAG-tagged human GDF8 prohormone (precursor GDF8) (human) (UniProt O14793); experiment: indirect ELISA, proGDF8FLAG coated at 5 ug/mL
[16] = molecular target: TMV U1 coat protein / wild-type TMV U1 virus (tobacco mosaic virus, strain U1) (UniProt P69687); experiment: DAS ELISA, virion captured by PVAS-135D
[17] = molecular target: TMV-FV7 (DJ5(12)-U1-GPAT coat protein fusion, from pLSB-FV7); experiment: DAS ELISA, virion captured by PVAS-135D
[18] = molecular target: Purified CHO-derived FLAG-tagged human GDF8 prohormone (precursor GDF8) (human) (UniProt O14793); experiment: ELISA, prohormone coated 250 ng/well, antibody diluted 1:80
[19] = molecular target: TMV-FV7 (DJ5(12)-U1-GPAT coat protein fusion, from pLSB-FV7); experiment: DAS ELISA, PVAS 135D capture
[20] = molecular target: DJ5 (20) peptide conjugated to BSA (human); experiment: indirect ELISA, conjugate coated at 5 ug/mL
[21] = molecular target: DJ6 peptide (GDF8 active region peptide 342-361) (human); experiment: ELISA, peptide coated 500 ng/well, antibody diluted 1:80
[22] = molecular target: DJ4 peptide (GDF8 active region peptide 312-331) (human); experiment: as above
[23] = molecular target: DJ7 peptide (GDF8 active region peptide 357-375) (human); experiment: as above
[24] = molecular target: DJ2 peptide (GDF8 active region peptide 282-301) (human); experiment: as above
[25] = molecular target: DJ3 peptide (GDF8 active region peptide 297-316) (human); experiment: as above
[26] = molecular target: DJ5 peptide (GDF8 active region peptide 327-346) (human); experiment: as above
[27] = molecular target: DJ1 peptide (GDF8 active region peptide 267-286) (human); experiment: as above
[28] = molecular target: Purified CHO-derived FLAG-tagged human GDF8 prohormone (precursor GDF8) (human) (UniProt O14793); experiment: ELISA, prohormone coated 250 ng/well, antibody diluted 1:40
[29] = molecular target: DJ6 peptide (GDF8 active region peptide 342-361) (human); experiment: ELISA, peptide coated 500 ng/well, antibody diluted 1:40
[30] = molecular target: DJ4 peptide (GDF8 active region peptide 312-331) (human); experiment: as above
[31] = molecular target: DJ7 peptide (GDF8 active region peptide 357-375) (human); experiment: as above
[32] = molecular target: DJ2 peptide (GDF8 active region peptide 282-301) (human); experiment: as above
[33] = molecular target: DJ3 peptide (GDF8 active region peptide 297-316) (human); experiment: as above
[34] = molecular target: DJ5 peptide (GDF8 active region peptide 327-346) (human); experiment: as above
[35] = molecular target: DJ1 peptide (GDF8 active region peptide 267-286) (human); experiment: as above
[36] = molecular target: TMV-FV7 (DJ5(12)-U1-GPAT coat protein fusion, from pLSB-FV7); experiment: indirect ELISA, endpoint dilution
[37] = molecular target: TMV-FV7 (DJ5(12)-U1-GPAT coat protein fusion, from pLSB-FV7); experiment: DAS ELISA, virion captured by PVAS 135D

Normal goat IgG (purified from non-immunized goat sera, commercially purchased) (antibody)
% Inhibition of GDF8 Activity (in vitro transcriptional activation assay), 250 ug IgG [1]: 7% | % Inhibition of GDF8 Activity (in vitro transcriptional activation assay, A204 cells, luciferase reporter), 250 ug IgG [1]: 0%

Rat monoclonal antibody MAB788 (R&D Systems, anti-mouse GDF8)
ELISA reactivity (OD 405/minute x 1000) (OD405/min x 1000) [2]: 0 | ELISA reactivity (OD 405/minute x 1000) (OD405/min x 1000) [3]: 0 | ELISA reactivity (OD 405/minute x 1000) (OD405/min x 1000) [4]: 0 | ELISA reactivity (OD 405/minute x 1000) (OD405/min x 1000) [5]: 0 | ELISA reactivity (OD 405/minute x 1000) (OD405/min x 1000) [6]: 0 | ELISA reactivity (OD 405/minute x 1000) (OD405/min x 1000) [7]: 133 | ELISA reactivity (OD 405/minute x 1000) (OD405/min x 1000) [8]: 4 | endpoint dilution (reciprocal dilution) [9]: 1620 | endpoint dilution (reciprocal dilution) [10]: < 20 | endpoint dilution (reciprocal dilution) [11]: 4860 | fold higher response than to TMV-FV6 and TMV-FV7 [12]: 2 fold and 3 fold | endpoint dilution higher than for DJ5(20) BSA (log10) [13]: 2 | ELISA reactivity (OD 405/minute x 1000) (OD405/min x 1000) [14]: 132 | endpoint dilution (reciprocal dilution) [15]: 21900 | endpoint dilution (reciprocal dilution) [16]: 180 | endpoint dilution (reciprocal dilution) [17]: 14600 | ELISA reactivity (OD 405/minute x 1000) (OD405/min x 1000) [18]: 132 | % Inhibition of GDF8 Activity (in vitro transcriptional activation assay), 0.1 ug IgG [1]: 0% | % Inhibition of GDF8 Activity (in vitro transcriptional activation assay), 1.8 ug IgG [1]: 0% | % Inhibition of GDF8 Activity (in vitro transcriptional activation assay), 3.1 ug IgG [1]: 7% | % Inhibition of GDF8 Activity (in vitro transcriptional activation assay), 6.3 ug IgG [1]: 17% | % Inhibition of GDF8 Activity (in vitro transcriptional activation assay), 12.5 ug IgG [1]: 47% | fold lower endpoint dilution than for the GDF8 prohormone [19]: 3 fold | endpoint dilution (reciprocal dilution) [20]: 270 | ELISA reactivity (OD 405/minute x 1000) (OD405/min x 1000) [21]: 0 | ELISA reactivity (OD 405/minute x 1000) (OD405/min x 1000) [22]: 0 | ELISA reactivity (OD 405/minute x 1000) (OD405/min x 1000) [23]: 0 | ELISA reactivity (OD 405/minute x 1000) (OD405/min x 1000) [24]: 0 | ELISA reactivity (OD 405/minute x 1000) (OD405/min x 1000) [25]: 0 | ELISA reactivity (OD 405/minute x 1000) (OD405/min x 1000) [26]: 102 | ELISA reactivity (OD 405/minute x 1000) (OD405/min x 1000) [27]: 0 | ELISA reactivity (OD 405/minute x 1000) (OD405/min x 1000) [28]: 127 | ELISA reactivity (OD 405/minute x 1000) (OD405/min x 1000) [29]: 0 | ELISA reactivity (OD 405/minute x 1000) (OD405/min x 1000) [30]: 0 | ELISA reactivity (OD 405/minute x 1000) (OD405/min x 1000) [31]: 0 | ELISA reactivity (OD 405/minute x 1000) (OD405/min x 1000) [32]: 0 | ELISA reactivity (OD 405/minute x 1000) (OD405/min x 1000) [33]: 0 | ELISA reactivity (OD 405/minute x 1000) (OD405/min x 1000) [34]: 118 | ELISA reactivity (OD 405/minute x 1000) (OD405/min x 1000) [35]: 0 | fold higher response than against the U1 coat protein [36]: 3 fold | endpoint dilution (reciprocal dilution) [37]: 7290

From patent publication US20090208522A1
